{
  "source": "patent US20200016201A1",
  "about": "“CHIMERIC ANTIGEN RECEPTORS AND COMPOSITIONS AND METHODS OF USE THEREOF” (published 2020)",
  "binders": {"B1": {"name": "Lym-1 (antibody, V domains shown)", "VH": "QLKESGPGLVAPSQSLSITCTISGFSLTSYGVHWVRQPPGKGLEWLVVIWSDGSTTYNSALKSRLSISKDNSKSQVFLKMNSLQTDDTAIYYCASHYGSTLAFASWGHGTLVTVSA", "VL": "DIQMTQSPASLSASVGETVTIICRASVNIYSYLAWYQQKQGKSPQLLVYNAKILAEGVPSRFSGSGSGTQFSLKINSLQPEDFGSYYCQHHYGTFTFGSGTKLEIK"}},
  "molecular_target": "Lym-1 antigen (HLA-Dr10) on Raji cells (human)",
  "assay": "avidity constant, Scatchard plot analysis on the target tumor cell line (Raji)",
  "data": [
    {"binder": "B1", "values": [
      {"measurement": "Ka", "result": "4.02e+08", "unit": "M⁻¹"}
    ]}
  ]
}
